Test results: paper PMC10636567

Experiments:
[1] = molecular target: human LGI1–FLAG (leucine-rich, glioma inactivated 1 protein) (human) (UniProt O95970); assay: co-IP; HEK293T co-transfected; lysis 24 h after transfection in 20 mM Tris-HCl pH 8.0, 1 mM EDTA, 0.5% Fos-Choline-14; PSD-95-FLAG or LGI1-FLAG precipitated with FLAG-M2 agarose, washed with 100 mM NaCl, 1% Triton X-100, eluted with FLAG peptide; western blot, band intensities; n = 3
[2] = molecular target: rat PSD-93-GFP (rat) (UniProt Q63622); assay: co-IP; HEK293T co-transfected; GFP-tagged MAGUK proteins precipitated with anti-GFP antibody; western blot
[3] = molecular target: rat SAP102-GFP (rat) (UniProt Q62936); assay: as above
[4] = molecular target: rat PSD-95-FLAG (rat) (UniProt P31016); assay: co-IP; HEK293T co-transfected; lysis 24 h after transfection in 20 mM Tris-HCl pH 8.0, 1 mM EDTA, 0.5% Fos-Choline-14; PSD-95-FLAG or LGI1-FLAG precipitated with FLAG-M2 agarose, washed with 100 mM NaCl, 1% Triton X-100, eluted with FLAG peptide; western blot, band intensities; n = 3
rat PSD-95-FLAG (rat), sequence (P31016 whole entry): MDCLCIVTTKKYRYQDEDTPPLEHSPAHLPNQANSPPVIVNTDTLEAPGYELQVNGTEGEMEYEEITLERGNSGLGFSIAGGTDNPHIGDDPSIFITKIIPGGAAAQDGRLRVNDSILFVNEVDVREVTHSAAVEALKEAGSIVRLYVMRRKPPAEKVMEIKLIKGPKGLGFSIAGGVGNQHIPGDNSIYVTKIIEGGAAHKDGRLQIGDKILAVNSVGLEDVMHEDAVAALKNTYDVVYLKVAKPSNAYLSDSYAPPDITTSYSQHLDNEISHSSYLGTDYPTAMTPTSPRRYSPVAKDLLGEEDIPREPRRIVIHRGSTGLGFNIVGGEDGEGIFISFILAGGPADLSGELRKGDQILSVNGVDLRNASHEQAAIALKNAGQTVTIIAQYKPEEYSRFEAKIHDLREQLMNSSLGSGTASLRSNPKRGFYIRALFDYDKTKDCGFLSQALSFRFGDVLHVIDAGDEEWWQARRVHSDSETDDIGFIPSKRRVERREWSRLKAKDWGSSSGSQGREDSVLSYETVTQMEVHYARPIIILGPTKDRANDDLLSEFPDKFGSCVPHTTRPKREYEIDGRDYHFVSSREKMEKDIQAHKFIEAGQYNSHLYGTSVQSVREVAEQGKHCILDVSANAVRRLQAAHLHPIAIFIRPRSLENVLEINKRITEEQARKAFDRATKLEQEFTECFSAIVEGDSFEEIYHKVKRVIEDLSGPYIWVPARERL

human LGI1–FLAG (leucine-rich, glioma inactivated 1 protein) (human), sequence (O95970 35-557): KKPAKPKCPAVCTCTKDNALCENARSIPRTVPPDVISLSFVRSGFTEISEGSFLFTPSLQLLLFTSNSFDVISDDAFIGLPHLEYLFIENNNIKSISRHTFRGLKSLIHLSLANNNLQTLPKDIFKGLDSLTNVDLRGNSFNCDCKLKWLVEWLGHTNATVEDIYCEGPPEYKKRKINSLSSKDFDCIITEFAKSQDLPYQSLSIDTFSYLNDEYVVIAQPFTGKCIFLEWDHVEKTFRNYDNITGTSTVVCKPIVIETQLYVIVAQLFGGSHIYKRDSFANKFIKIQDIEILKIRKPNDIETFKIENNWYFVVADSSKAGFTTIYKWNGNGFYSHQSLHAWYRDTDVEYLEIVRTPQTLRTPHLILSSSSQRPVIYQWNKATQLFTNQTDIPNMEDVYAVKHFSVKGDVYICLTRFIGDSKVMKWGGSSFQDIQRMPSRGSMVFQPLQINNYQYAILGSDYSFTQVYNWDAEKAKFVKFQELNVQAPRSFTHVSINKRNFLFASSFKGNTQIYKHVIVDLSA
rat SAP102-GFP (rat), sequence (Q62936 whole entry): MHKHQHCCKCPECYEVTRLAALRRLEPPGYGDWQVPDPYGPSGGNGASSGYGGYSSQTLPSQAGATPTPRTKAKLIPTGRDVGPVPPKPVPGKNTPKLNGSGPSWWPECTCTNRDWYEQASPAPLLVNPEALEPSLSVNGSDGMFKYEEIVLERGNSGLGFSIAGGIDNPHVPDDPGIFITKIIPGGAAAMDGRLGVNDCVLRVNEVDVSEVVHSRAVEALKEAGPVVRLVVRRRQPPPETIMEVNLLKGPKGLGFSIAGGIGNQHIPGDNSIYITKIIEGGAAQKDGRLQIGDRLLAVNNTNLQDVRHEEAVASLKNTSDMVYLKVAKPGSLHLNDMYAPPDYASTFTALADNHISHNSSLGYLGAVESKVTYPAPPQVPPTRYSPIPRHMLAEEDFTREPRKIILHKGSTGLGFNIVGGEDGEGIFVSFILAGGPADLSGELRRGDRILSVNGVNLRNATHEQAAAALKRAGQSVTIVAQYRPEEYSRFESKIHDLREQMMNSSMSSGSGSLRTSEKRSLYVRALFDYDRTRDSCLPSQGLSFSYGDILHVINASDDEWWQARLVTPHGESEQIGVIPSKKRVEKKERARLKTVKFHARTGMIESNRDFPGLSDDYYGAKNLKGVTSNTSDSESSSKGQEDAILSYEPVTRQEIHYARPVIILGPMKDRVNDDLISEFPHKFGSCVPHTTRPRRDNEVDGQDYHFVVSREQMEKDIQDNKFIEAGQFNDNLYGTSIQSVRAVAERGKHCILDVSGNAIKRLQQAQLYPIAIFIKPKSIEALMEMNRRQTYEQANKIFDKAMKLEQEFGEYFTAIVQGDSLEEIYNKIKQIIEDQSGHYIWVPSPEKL
rat PSD-93-GFP (rat), sequence (Q63622 whole entry): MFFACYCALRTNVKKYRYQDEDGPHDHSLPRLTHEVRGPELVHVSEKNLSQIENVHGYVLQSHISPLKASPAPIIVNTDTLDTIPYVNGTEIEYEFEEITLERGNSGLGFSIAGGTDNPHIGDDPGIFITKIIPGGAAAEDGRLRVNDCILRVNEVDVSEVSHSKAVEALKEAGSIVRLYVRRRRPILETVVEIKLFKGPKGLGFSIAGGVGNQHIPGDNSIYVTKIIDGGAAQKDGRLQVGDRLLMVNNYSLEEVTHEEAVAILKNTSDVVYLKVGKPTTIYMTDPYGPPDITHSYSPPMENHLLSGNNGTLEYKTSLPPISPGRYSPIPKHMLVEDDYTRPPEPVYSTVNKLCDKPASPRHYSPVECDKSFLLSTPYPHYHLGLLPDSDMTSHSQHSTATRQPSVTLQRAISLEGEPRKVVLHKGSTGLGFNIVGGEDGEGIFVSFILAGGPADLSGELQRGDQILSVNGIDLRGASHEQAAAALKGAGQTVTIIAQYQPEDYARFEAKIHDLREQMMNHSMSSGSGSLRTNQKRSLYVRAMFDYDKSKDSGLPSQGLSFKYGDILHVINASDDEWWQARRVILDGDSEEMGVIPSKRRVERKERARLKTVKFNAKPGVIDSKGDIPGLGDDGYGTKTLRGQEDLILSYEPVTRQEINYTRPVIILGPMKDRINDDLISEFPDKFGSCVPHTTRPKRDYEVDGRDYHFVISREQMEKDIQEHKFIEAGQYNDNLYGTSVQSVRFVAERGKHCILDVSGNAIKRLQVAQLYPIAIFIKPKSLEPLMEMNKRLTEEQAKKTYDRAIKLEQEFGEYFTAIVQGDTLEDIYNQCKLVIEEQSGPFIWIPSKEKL

| co-immunoprecipitated amount, percent of wild type [1] | co-immunoprecipitated amount, percent of wild type [2] | co-immunoprecipitated amount, percent of wild type [3] | co-immunoprecipitated amount, percent of wild type [4] | Substance |
| --- | --- | --- | --- | --- |
| 40% | – | – | – | ADAM22 C401Y variant (from UniProt Q9P0K1 26-906) (receptor) |
| 75% | 20% | 20% | 20% | human ADAM22 S905F variant (from UniProt Q9P0K1-1 26-906) (receptor) |
